{"source": "the DeepSol protein solubility set"}
{"assay": "soluble on expression in E. coli; label from the status in PepcDB or PDB records"}
{"sequence": "MSLFIDAHNHLDFFEEQEKLNKALDIIKNDNIITLGCSMDTKSYKFTKSLALKNKNIIPCFGIHPSRAHENFKNLECFDEYIRESKIIGEIGLDYVWVKEKEKYPHMKRVFTYFLEEAKKYNKITNIHTKGAESEIYNYIKKYELKTPIIHWYSGDKDTLKKLLDYGCYFTISVDIGYSKLSKEIVQLLPIDKILTETDGPTSLEWVNGDYGYPNVIKNVVKEISKIKNIQEEEVKGVIENNFKTLIRKEGITLEGHHHHHH", "soluble on expression in E. coli": "soluble"}
{"sequence": "SFRFMRDVEPEDPMFLMDPFAIHRQHMSRMLSGGFGYSPFLSITDGNMPGTRPASRRMQQAGAVSPFGMLGMSGGFMDMFGMMNDMIGNMEHMTAGGNCQTFSSSTVISYSNTGDGAPKVYQETSEMRSAPGGIRETRRTVRDSDSGLEQMSIGHHIRDRAHILQRSRNHRTGDQEERQDYINLDESEAAAFDDEWRRETSRFRQQRPLEFRRLESSGAGGRRAEGPPRLAIQGPEDSPSRQSRRYDW", "soluble on expression in E. coli": "soluble"}
{"sequence": "DSLGWSNVDVLDRICEAYGFSQKIQLANHFDIASSSLSNRYTRGAISYDFAAHCALETGANLQWLLTGEGEAFVNNRESSDAKRIEGFTLSEEILKSDKQLSVDAQFFTKPLTDGMAIRSEGKIYFVDKQASLSDGLWLVDIKGAISIRELTKLPGRKLHVAGGKVPFECGIDDIKTLGRVVGVYSEVN", "soluble on expression in E. coli": "soluble"}
{"sequence": "MKKREVIASVKDEKLVKKRRNEMIKGAISLFKQKGFHQTTTREIAKASGFSIGTLYEYIRKKEDVLYLVCDRIYDEVRERTEQDLGAHHGTIEGLRRAIAHYFRVVDELDDEVLVMYQEVKALSKESLPYVLNKELDMAAIFEHILRACVENGALQLSESEIRLFAHNIVVLGQMWAFRRWVLRKMYTLDEYIELQTEFLLKGIMEKQRV", "soluble on expression in E. coli": "not soluble"}
{"sequence": "MPDEKDKHEGTWLQWPHEYTYGEEYKKEVEPIWVKMASALTEGEKVHIVAYDQEEKERINNLLTDEGLNMEKIDFFIAPTDDVWARDSGPIFVYDSNKNLKILDPAFNGWGKKTPYKNDAQIRKNVSKQSGIERVDWGKFVLEGGAIELDSNGTALLTRSAVTNKNRNPDLSEKEIEKYISDLGVSNFIWLDGVPNLDITDFHIDGFAKFHNKSTIVTMKEDDLAEWGLSNKDMDTLLDAKNASGQKYKYEYLPLSKEKVALENGKTLDYKGSYINYYIGNTVVLVPNYNDPNDKIANDTIQKLYPDRKVVGIDVRELYKNGGMIHCVTQQQPIALK", "soluble on expression in E. coli": "not soluble"}
{"sequence": "TELTKCKVSHAIKDIDGYQGISLLEWACVLFHTSGYDTQAVVNDNGSTEYGLFQISDRFWCKSSEFPESENICGISCDKLLDDELDDDIACAKKILAIKGIDYWKAYKPMCSEKLEQWRCEKP", "soluble on expression in E. coli": "soluble"}
{"sequence": "MGSDKIHHHHHHMLNMSNVPNDSVEEDGRLPTGKLPSAIGKNHRIAVVDTHFHLWKSQEIAPPSGIMADPSLFRDFDWSDYELAMQGVALEAAIHVQVHHGSEKAKSEYGRVERFAAEHAPIAGMIAWAPLESPGVEREIAELAQSPLVAGVRRLTQQEPDELFCARPQFVAGAKLLASYGLVCEVCVLEHQLKGVIALASACPELTIILDHLGKPHLAEPPTEHWLENMRILGMLENVVCKVAPTPLWASDPPLTAAHAAPFIEYVAEHFGWDRLIYGSNWPPLRILTDDASQWADIVFKTLHWAKADELGRLFSENARRIFRLNKGHR", "soluble on expression in E. coli": "not soluble"}
{"sequence": "MSLSSRNSTPLRQFGYEFFMTPLDVSKLVLPVSENYKLGPGDEVIIYIVGLPSNQEIPPVIKTIVDREGNISIPNLGVFNVWGLTLKETEELLRQELGLDLKVTVGEIRTFVIYVAGEVNRPGTHVATAVNTVIDALSIAGGVKKTGSLRNIILTRKTPSGLKTYNIDLYDVFIKGKPIDLTLRDGDTILVKPIGPTVAIAGEVKRPAIYEIKGGETIKDLIELAGGLLPSSYQYKVILQRYENGKLRIIEDSLTNKAFMNENLRDGDLVLIKKSADIPENSYSIEGYVTLPGVYEYKEGLKLSDILNPDLFFKDTNLKFAVLVRQYPKGSIPKYIAFSPEKVLTGKEDMELKPYDRLIFFKLGQSEGHHHHHH", "soluble on expression in E. coli": "soluble"}
{"sequence": "MSLTWYHELGIKYPLFQGGMAWASNAELVAAVSNNGALGIIGSGGRTANELRRMIRKTKTLTSQPFGVNLMLLDKNIKQLLEVICEEKISVVTTGAGSPKEIIDTIIANNIKLFPVVPNKEIALKMLNLPISGIIVEGNEAGGHVGSQNLASLLKEIAPICPLPLIAAGGIYDHHTASLANILGANGVQVGTAFLLAKECQISPIYQELICKGEENGTSLISDKNGHLTRLLNISSEYPLNKSLKAAVEKGDLINGAFMAGSSSAYLEKIEPVENIIQRIMKKEGHHHHHH", "soluble on expression in E. coli": "not soluble"}
{"sequence": "MGDICETVEATFHGVAYLLTVSTIEGETLCVEVEQKSDCSRWRGDFTSRYIEDITAKTGNFKKFPVFVKMLLSALKQASDSVFVDLLTYQDLEVLKSRKAGGQAPPPRTQPPNNKRYLIMTYAAEFDRVHYPLPLLFEENPDPQHLKRIISQLRSEVEGLQVEAGNRRGGEVSAELRRLREENAALQRQLKQMERSGSGVGAGAESSEARELARELRTVRKERDLLQARVEAAEAELERERGLHRRELRRRAKEQQELVDELGRCKEQIRELKMRIRQLTEDLEARDRRMNSTDRIRSVYARGSNDGSTSGVAPRRPSSGGRGPSSNYMAPTRGADSRSNSRGRGTSSAERSRPNSAPIGGPRPRFDPTEYVRQRKERESAAVGGRRSNAPTPPRSAGTSRASSVVGSRPASAERLPPIRTASPTNSRPSSTERYRPGSGGPPGRTSAGGSRGAADRAGARGPDPYAPRSRGASPSGRATAWGEPGASGGGAGGWSKFPGGGGGGVGGSGQRISSNSPRSMSPARALAEVKQKLSTFVAGRGGSLQGDDASSAHGEHMSQSSKSQVFEDATAEIADIDSRLHALQDFLRMAKTSSTSTSTTQA", "soluble on expression in E. coli": "not soluble"}
{"sequence": "MKPAYPPLLLQMSPAYTPRPLKNLFTANQCWAHLIEEGGLRDIEVESVTKMLACGTSILGVKHYTCGNHSCPHVKYLCNTCSCRACPSCGKKATDQWIANQQHRLPECTWQHLVFTLPDTLWPLFFHNRHWLDALCRLAVDNLLYAGRRRGVEVGVFCAIHTYGRRLNWHPHIHVSVTLGGIDDAGVWKDLSFHPSALRRRWMWNVRQYLLSQWEHTTVPPENAHLQSENDWRHLVLNAGGQHWHIHLSKKTKNGKKTVNYLGRYLKKPPISGSRLAHYTSGATLSFTYLDHRTKTYQQETLSQTDMLRRVVQHIPEKHFRMIRYFGFLANRVCGRQLPRVYEAIRMERRGKAPKLYFAQMSKAFLHRDPFSCVLCGARMVYTAAIAGLTVQGLINNAQSIAQLRYVPA", "soluble on expression in E. coli": "not soluble"}
{"sequence": "MSWMQNLKNYQHLRDPSEYMSQVYGDPLAYLQETTKFVTEREYYEDFGYGECFNSTESEVQCELITGEEDPKLLPYDKRLAWHFKEFCYKTSAHGIPMIGEAPLEHHHHHH", "soluble on expression in E. coli": "soluble"}
{"sequence": "MDILKLSDFIGNTLIVSLTEDRILVGSLVAVDAQMNLLLDHVEERMGSSSRMMGLVSVPRRSVKTIMIDKPVLQELTANKVELMANIV", "soluble on expression in E. coli": "not soluble"}
{"sequence": "MKCKDDMSAVLTAEQALKLVGEMFVYHMPFNRALGMELERYEKEFAQLAFKNQPMMVGNWAQSILHGGVIASALDVAAGLVCVGSTLTRHETISEDELRQRLSRMGTIDLRVDYLRPGRGERFTATSSLLRAGNKVAVARVELHNEEQLYIASATATYMVGLEHHHHHH", "soluble on expression in E. coli": "soluble"}
{"sequence": "MYYDVLKTFIAVVEEKNFTKAAEKLMISQPSVSLHIKNLEKEFQTALLNRSPKHFTTTPTGDILYQRAKQMVFLYEQAKAEIYAHHHYVKGELKIAASFTIGEYILPPLLAQLQKLYPELNLDVMIGNTEEVSERVRMLQADIGLIEGHTNENELEIEPFMEDEMCIAAPNQHPLAGRKEISISDLQNEAWVTREKGSGTREYLDHVLSSNGLRPKSMFTISSNQGVKEAVINGMGLSVLSRSVLRKDLIHREISILHINNFSLKRKLSYIHSPLMENTKNKEIFITMLKSNYQSQLLK", "soluble on expression in E. coli": "soluble"}
